The data set deals with CC(C)(COP(=O)(O)OP(=O)(O)OC[C@H]1O[C@@H](n2cnc3c(N)ncnc32)[C@H](O)[C@@H]1OP(=O)(O)O)[C@@H](O)C(=O)NCCC(=O)NCCSC(=O)CC(=O)O. In words: purified protein. The conditions noted are these: sole substrate, 100 mM potassium phosphate, pH 8.0, 30 °C, 20-1000 μM malonyl-CoA.

In the case of AaPYKS1 (Anisodus acutangulus), under “1 ng/μL enzyme, 5 min”, the Km was found to be 70.38 µM and the kcat turned out to be 2.24 s⁻¹.
As to EnPKS1 (Erythroxylum novogranatense), where the note is “1 ng/μL enzyme, 5 min”, the Michaelis constant (Km) came out at 112.90 µM and the catalytic constant (kcat) came to 1.89 s⁻¹.
For EnPKS2 (Erythroxylum novogranatense), under “2 ng/μL enzyme, 8 min”, the Michaelis constant (Km) turned out to be 50.54 µM and the kcat was 0.45 s⁻¹.

A word on the Km: it is the concentration of substrate that gives half-maximal velocity. What is called kcat is the number of substrate molecules converted per active site and unit of time at saturation.

The values are drawn from paper PMC9411544, “Catalytic innovation underlies independent recruitment of polyketide synthases in cocaine and hyoscyamine biosynthesis” (Nature Communications, 2022).
